Results on three molecules are retold here after US20110256153A1 (IMMUNOGEN, published 2011).

Assay [1] has as its target T1, human CD37 (human, UniProt P11049 1-278).
T1 construct: Tetraspanin antigen; Expressed on 300-19 cells transfected with pSRa-CD37 (entire CDS) or endogenous on WSU-DLCL-2, BJAB and Ramos lymphoma cells; also called CD37 antigen; human CD37 wildtype
T1 sequence: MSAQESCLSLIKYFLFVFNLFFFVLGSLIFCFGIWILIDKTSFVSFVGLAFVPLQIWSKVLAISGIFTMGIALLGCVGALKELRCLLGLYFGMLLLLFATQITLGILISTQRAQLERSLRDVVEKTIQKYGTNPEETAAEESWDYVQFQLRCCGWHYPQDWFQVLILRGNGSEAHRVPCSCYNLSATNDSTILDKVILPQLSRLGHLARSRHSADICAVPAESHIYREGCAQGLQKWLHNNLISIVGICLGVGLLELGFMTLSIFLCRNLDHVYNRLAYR
Description: flow cytometry titration on BJAB cells (FIG. 20B); apparent Kd. In general terms: A flow cytometer gives signals particle by particle.

For assay [2], the target named is T1, human CD37. Description: cell-based or functional assay.
In assay [3] the target is T1, human CD37. Description: flow cytometry titration on BJAB cells; apparent Kd. The method, then:
(§1) Binding specificity was tested by flow cytometry using purified antibodies. […] All murine antibodies were incubated for 3 h with either CD37-expressing 300-19 cells or the non-transfected 300-19 cells (1×10⁵ cells per sample) in 100 μL FACS buffer (RPMI-1640 medium supplemented with 2% normal goat serum). Then, the cells were pelleted, washed, and incubated for 1 h with 100 μL of FITC-conjugated goat anti-mouse IgG-antibody (Jackson Laboratory, 6 μg/mL in FACS buffer). The cells were pelleted again, washed with FACS buffer and resuspended in 200 μL of PBS containing 1% formaldehyde. Samples were acquired using a FACSCalibur flow cytometer with the HTS multiwell sampler or a FACS array flow cytometer and analyzed using CellQuest Pro (all from BD Biosciences, San Diego, US).
The humanized antibodies huCD37-38, huCD37-50, huCD37-51, huCD37-56 and chCD37-57 were assayed for their binding affinity to BJAB cells in comparison to their murine counterparts. Flow cytometry binding assays were carried out using secondary FITC-conjugated goat-anti-murine and -anti-human antibodies, analyzed as described in Example 2 and dose-response curves were generated by non-linear regression for each antibody. The value for the apparent dissociation constant (Kd) of each antibody was calculated using GraphPad Prism v4 (GraphPad software, San Diego, Calif.).

A further assay addresses T2, macaque CD37 (macaque, UniProt P11049 1-277 (human entry)).
T2 construct: Expressed on 300-19 cells transfected with pSRa-CD37mac (300-19/CD37mac cells); also called macaca CD37; macaque derived CD37 antigen
T2 chain: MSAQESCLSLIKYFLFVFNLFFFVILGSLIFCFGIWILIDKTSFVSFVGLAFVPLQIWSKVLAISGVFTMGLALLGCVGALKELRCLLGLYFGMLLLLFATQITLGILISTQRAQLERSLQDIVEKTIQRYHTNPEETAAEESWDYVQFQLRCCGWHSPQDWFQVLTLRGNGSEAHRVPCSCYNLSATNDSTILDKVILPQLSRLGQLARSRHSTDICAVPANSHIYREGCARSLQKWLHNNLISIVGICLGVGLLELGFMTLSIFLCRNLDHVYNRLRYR
The assay can be described thus: flow cytometry titration on 300-19/CD37mac cells; apparent Kd. The method, then:
as §1
Flow cytometry binding assays were carried out using secondary FITC-conjugated goat-anti-human antibodies, analyzed as described in Example 2 and dose-response curves were generated by non-linear regression for each antibody. The value for the apparent dissociation constant (Kd) of each antibody was calculated using GraphPad Prism v4 (GraphPad software, San Diego, Calif.).

For assay [4], the target named is T1, human CD37. The assay can be described thus: flow cytometry titration on Ramos cells; apparent Kd. The method, then: as §1
The chimeric antibodies chCD37-3 and chCD37-12 were assayed for their binding affinity to Ramos cells in comparison to their murine counterparts. Flow cytometry binding assays using Ramos cells and muCD37-3, chCD37-3, muCD37-12 and chCD37-12 antibodies were carried out and analyzed as described in Example 2 using secondary FITC-conjugated goat-anti-murine and -anti-human antibodies. FIG. 9A depicts the dose-response curves generated by non-linear regression for each antibody. The value for the apparent dissociation constant (Kd) of each antibody was calculated using GraphPad Prism v4 (GraphPad software, San Diego, Calif.).

Assay [5] has as its target T1, human CD37. The assay can be described thus: competition flow cytometry on BJAB cells; competitor PE-labeled muCD37-3 (1 nM). The method, then:
Flow cytometry binding assays using BJAB cells and a competitive binding format were used to evaluate binding affinity of chimeric and humanized versions of CD37-3. BJAB cells were incubated with a 1 nM concentration of PE-labeled muCD37-3 antibody and competition was measured by adding varying amounts of muCD37-3, chCD37-3, huCD37-3v1.0 or huCD37-3v1.01. The samples were incubated for 3 hrs at 4° C. Then, the cells were pelleted, washed with FACS buffer and resuspended in 200 μL of PBS containing 1% formaldehyde. Samples were acquired using a FACSCalibur flow cytometer with the HTS multiwell sampler and analyzed using CellQuest Pro (all from BD Biosciences, San Diego, US). The resulting mean PE fluorescence was plotted against the amount of competing antibody used in a semi-log plot. FIG. 9B depicts the dose-response curves generated by non-linear regression for each antibody. The value for the apparent dissociation constant (Kd) of each antibody was calculated using GraphPad Prism v4 (GraphPad software, San Diego, Calif.).

Usually EC50 stands for the concentration that produces a half-maximal response. Lower therefore signals a more potent agent.

B1: huCD37-38-SMCC-DM1 (antibody, human IgG1, kappa, V domains shown)
VH: QVQLQESGPGLVKPSQSLSLTCTVSGYSITSGFGWHWIRQFPGKGLEWMAYILYSGGTDYNPSLKSRISITRDTSKNQFFLRLSSVTAADTATYYCARGYYGYGAWFVYWGQGTLVTVSS
VL: DIVLTQSPASMSASPGERVTMTCSASSSVTYMHWYQQKPGTSPKRWIYDTSKLASGVPARFSGSGSGTSYSLTISSMEAEDAATYYCQQWISNPPTFGGGTKLEIKR
modifications: DM1 attached through SMCC linker; attachment residues and load not stated
notes: SMCC-DM1 conjugate of huCD37-38
For B1, the Kd with human CD37 [1] was found to be 1.2 nM. Also, in the assay with human CD37 [2], the “EC50 of in vitro cytotoxicity, WST-8 assay, Daudi cells” value turned out to be 0.098 nM and the “EC50 of in vitro cytotoxicity, WST-8 assay, Granta-519 cells” value is 0.074 nM.

B2: huCD37-38 (antibody, human IgG1, kappa, V domains shown)
VH: QVQLQESGPGLVKPSQSLSLTCTVSGYSITSGFGWHWIRQFPGKGLEWMAYILYSGGTDYNPSLKSRISITRDTSKNQFFLRLSSVTAADTATYYCARGYYGYGAWFVYWGQGTLVTVSS
VL: DIVLTQSPASMSASPGERVTMTCSASSSVTYMHWYQQKPGTSPKRWIYDTSKLASGVPARFSGSGSGTSYSLTISSMEAEDAATYYCQQWISNPPTFGGGTKLEIKR
notes: Humanized antibody
With B2, the Kd in the assay with human CD37 [1] is 1.04 nM; with human CD37 [3] it was 0.3 nM; with macaque CD37, 1.1 nM.

B3: chCD37-3 (antibody, human IgG1, kappa)
heavy: not shown
light: DIQMTQSPASLSVSVGETVTITCRASENIRSNLAWYQQKQGKSPQLLVNVATNLADGVPSRFSGSGSGTQYSLKINSLQSEDFGTYYCQHYWGTTWTFGGGTKLEIKRTVAAPSVFIFPPSDEQLKSGTASVVCLLNNFYPREAKVQWKVDNALQSGNSQESVTEQDSKDSTYSLSSTLTLSKADYEKHKVYACEVTHQGLSSPVTKSFNRGEC
notes: Chimeric antibody, murine variable regions with human constant regions
Regarding B3, the Kd with human CD37 [4] was 0.8 nM. Also, the 50% effective concentration (EC50) in the assay with human CD37 [5] amounted to 0.7 nM.
